{"source": "patent US20240369485A1", "about": "“FLUORESCENT SENSOR FOR MONITORING CALCIUM DYNAMICS” (priority 2021, published 2024)", "molecules": {"B1": {"name": "R-CatchER: red genetically encoded Ca^2+ indicator, mApple A145E/K198D/R216D, SEQ ID NO: 12 (protein)", "chain": "EENNMAIIKEFMRFKVHMEGSVNGHEFEIEGEGEGRPYEAFQTAKLKVTKGGPLPFAWDILSPQFMYGSKVYIKHPADIPDYFKLSFPEGFRWERVMNFEDGGIIHVNQDSSLQDGVFIYKVKLRGTNFPSDGPVMQKKTMGWEESEERMYPEDGALKSEIKKRLKLKDGGHYAAEVKTTYKAKKPVQLPGAYIVDIDLDIVSHNEDYTIVEQYEDAEGRHSTGGMDELYK"}}, "key": {"[1]": {"system": "HeLa cells", "experiment": "In situ Ca^2+ binding affinity in HeLa cells with stepwise Ca^2+ concentrations", "format": "cell-based", "protocol": "(§1) Cell culture and transfection. C2C12, HEK293 and HeLa cells were cultured and maintained in Dulbecco's modified Eagle's medium (DMEM) supplemented with 10% fetal bovine serum (FBS) and high glucose (4.5 g/L) at 37° C. R-CatchER, G-CatchER2, G-CEPIA1er, R-CEPIA1er or R-CatchER with GFP-CaSR (wt and mutations) were transfected into cells using Lipofectamine 3000 (Life Technologies), following the manufacturer's instructions. Seed cells onto sterilized 22 mm×40 mm glass microscope slides in 6 cm dishes until about 70% confluency, the day of transfection. The next day, 2 μg of plasmid were mixed with transfection reagent in the reduced serum media Opti-MEM for 4-6 h at 37° C. The media was then replaced with 3 mL of fresh DMEM and incubated at 37° C. for 48 h."}, "[2]": {"experiment": "Calcium (Ca^2+) binding assay: fluorescence/absorbance titration of purified protein", "summary_of_the_method": "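Purified mApple, EGFP and mCherry variants at 10 μM (mApple with 5 μM EGTA in 10 mM Tris, pH 7.4, triplicate) were titrated stepwise with Ca^2+. Fluorescence was followed across the titration, with absorbance spectra of Ca^2+-free and Ca^2+-loaded forms taken before and after. Affinity came from a 1:1 binding fit.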"}, "[3]": {"system": "HeLa cells", "experiment": "Confocal imaging of R-CatchER with ER-tracker green", "format": "cell-based", "protocol": "Confocal imaging of R-CatchER. HeLa cells were transfected with R-CatchER two days before fixing. Cells were fixed with 3.7% Thermo Scientific™ Pierce™ 16% Formaldehyde (w/v), methanol-free, and permeabilized with 0.1% Triton X-100. Cells were then stained with ER-Tracker green (Invitrogen) and with ProLong gold antifade mountant with DAPI (Invitrogen) for staining the nucleus. Confocal imaging then was performed using a Zeiss LSM 700 confocal laser scanning microscope (CLSM)."}, "[4]": {"experiment": "In vitro kinetics by stopped flow spectrofluorometer", "format": "binding", "protocol": "In vitro kinetics by stopped flow spectrofluorometer. The kinetics were determined by a Hi-Tech SF-61 stopped-flow spectrofluorometer equipped with the mercury-Xe lamp (10 mm path length, dead time of 2.2 ms) at 20° C. For R-CatchER and its variant or R-CEPIA1er, excitation was at 569 nm and a long-pass 590 nm filter was used. For G-CEPIA1er, a 530 nm long-pass filter was set with excitation at 498 nm, while for MCD1, excitation at 587 nm and a long-pass 600 nm filter were applied. For association kinetics, R-CatchER, R-CatchER variant, MCD1, R-CEPIA1er, and G-CEPIA1er were mixed with the same buffer containing an increasing concentration of Ca^2+. For disassociation kinetics, R-CatchER, R-CatchER variant, MCD1, R-CEPIA1er, and G-CEPIA1er in buffers with concentration of Ca^2+ at Kd, were mixed with 5 mM EGTA or buffer. The raw data were fitted using either single exponential for R-CatchER, R-CatchER variant, and MCD1, or double exponential equations for R-CEPIA1er and G-CEPIA1er."}, "[5]": {"experiment": "Quantum yield, extinction coefficient, and brightness determination", "format": "physicochemical", "set-up": "key to Brightness: extinction coefficient × quantum yield", "protocol": "Quantum yield, extinction coefficient, and brightness determination. The quantum yield values of all the variants were determined by measuring the emitted fluorescence intensities and absorbance intensities of the chromophore at different protein concentrations. The wildtype was used as a reference to calculate quantum yield. Brightness was defined as a visual perception in which a source appears to emit or reflect a given amount of light, which was obtained by multiplying the extinction coefficient and the quantum yield."}, "[6]": {"system": "HeLa cells", "format": "cell-based", "protocol": "as §1\nHILO imaging of R-CatchER, G-CatchER2, R-CEPIA1er, and G-CEPIA1er. Samples were mounted in a perfusion chamber and imaged using a customized optical microscope based on a Nikon TiE inverted microscope equipped with a 100×TIRF objective (N.A. 1.49, Nikon) and a highly sensitive electron multiplying charge-coupled device (EMCCD) camera (Andor Ixon Ultra 888). A fiber-coupled 488 nm or 561 nm laser (LBX-488/LCX-561, Oxxius) was first collimated and then focused to the back focal plane of the TIRF objective using an achromatic optical lens of 200 mm focal length (AC254-200-A, Thorlabs). To achieve HILO imaging, the incident angle of the excitation laser was adjusted to be slightly smaller than the critical angles at the cell-coverslip interface through translational movement the optical axis of the incident light beam by a motorized stage (SGSP-20-20, Sigma Koki). An efficient excitation volume of few micrometers was obtained under HILO illumination. A quad-band filter set (TRF89901v2, Chroma) was used for filtering out the fluorescence background. Fluorescence images of samples were recorded at 1 Hz as the concentration of ER Ca^2+ was perturbed by perfusion of 3 μM Thapsigargin, 0.5 mM 4-cmc, 1 mM 4-cmc, 100 μM ATP, or 100 μM histamine."}, "[7]": {"system": "ER Ca^2+", "experiment": "Quantitative basal/resting ER Ca^2+ measurement using R-CatchER", "format": "cell-based"}}, "note": "Read-outs that look alike come from different tables or passages of the source."}
{"molecule": "B1", "values": [{"measurement": "Kd", "setting": "[1]", "value": "310 ± 50", "unit": "µM"}, {"measurement": "Ca^2+ induced fluorescence changes upon addition of other ions (metal selectivity)", "setting": "[2]; 1 mM Mg^2+, 150 mM KCl, 150 mM NaCl", "value": "insensitive"}, {"measurement": "Fmax/Fmin", "setting": "[2]; EGFP and mApple variants", "value": 4.22}, {"measurement": "Aholo/Aapo", "setting": "[2]; absorbance at 569", "value": "4.33 (569)"}, {"measurement": "fluorescence dynamic range ΔF/F", "setting": "[2]; in vitro, Ca^2+ binding", "value": "4.22±0.04"}, {"measurement": "Kd", "setting": "[2]; in vitro, purified protein, read-out: Kd for Ca^2+ binding", "value": "350 ± 30", "unit": "µM"}, {"measurement": "Hill coefficient", "setting": "[2]; purified indicator, Ca^2+ binding", "value": 0.98}, {"measurement": "Dynamic Range", "setting": "[2]; purified indicator, Ca^2+ induced fluorescence", "value": 4.2}, {"measurement": "Kd", "setting": "[2]; purified indicator, Ca^2+, read-out: Kd", "value": 361, "unit": "µM"}, {"measurement": "Pearson's Coefficient of colocalisation with ER-tracker green", "setting": "[3]", "value": 0.83}, {"measurement": "kon", "setting": "[4]; Ca^2+ association", "value": ">7e+06", "unit": "M⁻¹ s⁻¹"}, {"measurement": "koff", "setting": "[4]; Ca^2+ dissociation", "value": ">2000", "unit": "s⁻¹"}, {"measurement": "Ca^2+ association rate kon", "setting": "[4]; stopped-flow, dead time 2.2 ms, 20° C.", "value": "≥ 7e+06", "unit": "M⁻¹ s⁻¹"}, {"measurement": "Brightness", "setting": "[5]; Apo", "value": "0.13 ± 0.02"}, {"measurement": "Extinction coefficient", "setting": "[5]; Apo", "value": 44000, "unit": "M⁻¹ cm⁻¹"}, {"measurement": "Fluorescence quantum yield", "setting": "[5]; Apo", "value": "0.30 ± 0.02"}, {"measurement": "Brightness", "setting": "[5]; Holo", "value": "0.30 ± 0.03"}, {"measurement": "Extinction coefficient", "setting": "[5]; Holo", "value": 60000, "unit": "M⁻¹ cm⁻¹"}, {"measurement": "Fluorescence quantum yield", "setting": "[5]; Holo", "value": "0.50 ± 0.03"}, {"measurement": "ε (holo) (×10^4) (M^−1 cm^−1)", "setting": "[5]; Holo", "value": "6 ×10^4 M^−1 cm^−1"}, {"measurement": "ε (apo) (×10^4) (M^−1 cm^−1)", "setting": "[5]; apo", "value": "4 ×10^4 M^−1 cm^−1"}, {"measurement": "Φ (apo)", "setting": "[5]; apo, quantum yield", "value": 0.30}, {"measurement": "Φ (holo)", "setting": "[5]; holo, quantum yield", "value": 0.50}, {"measurement": "fluorescence decrease ΔF/F", "setting": "[6]; 3 μM Thapsigargin (Tg), 0 mM Ca^2+", "value": "0.69±0.07"}, {"measurement": "half decay time of the first peak of ER Ca^2+ oscillations", "setting": "[6]; 100 μM histamine", "value": "1.8 ± 0.1", "unit": "s"}, {"measurement": "half rise time of the first peak of ER Ca^2+ oscillations", "setting": "[6]; 100 μM histamine", "value": "7.3 ± 0.1", "unit": "s"}, {"measurement": "Basal [Ca^2+]ER", "setting": "[7]; 6-23 cells, 0.5 mM Ca^2+", "value": "735.0 ± 66.7", "unit": "µM"}, {"measurement": "Basal [Ca^2+]ER", "setting": "[7]; CaSR L173P, 1.8 mM Ca^2+", "value": "893.6 ± 67.6", "unit": "µM"}, {"measurement": "Basal [Ca^2+]ER", "setting": "[7]; CaSR P221L, 1.8 mM Ca^2+", "value": "477.7 ± 49.4", "unit": "µM"}, {"measurement": "Basal [Ca^2+]ER", "setting": "[7]; CaSR P221Q, 1.8 mM Ca^2+", "value": "674.6 ± 50.2", "unit": "µM"}, {"measurement": "Basal [Ca^2+]ER", "setting": "[7]; CaSR S820F, 1.8 mM Ca^2+", "value": "406.1 ± 41.4", "unit": "µM"}, {"measurement": "Basal [Ca^2+]ER", "setting": "[7]; GFP-CaSR, 0.5 mM Ca^2+", "value": "487.1 ± 48.2", "unit": "µM"}, {"measurement": "resting ER Ca^2+ concentration", "setting": "[7]; HEK293 cells", "value": "0.68 ± 0.22", "unit": "mM"}, {"measurement": "resting ER Ca^2+ concentration", "setting": "[7]; HeLa cells", "value": "0.59 ± 0.16", "unit": "mM"}, {"measurement": "Basal [Ca^2+]ER", "setting": "[7]; TT cells, 0.5 mM Ca^2+", "value": "539.0 ± 65.9", "unit": "µM"}]}
